Data on four molecules can be found in patent US20090280138A1.

Common to all, as to details: remark: other sources report otherwise
The target of test [1] is MHC class I molecule B*0702. As to the kind of experiment: iTopia affinity assay (ED50), peptide titration on plate-bound MHC.
Test [2] addresses MHC class I molecule A*0301. Described as above.
The target of test [3] is MHC class I allele A*0201. As to the kind of experiment: iTopia peptide binding assay.
Test [4] addresses MHC class I allele A*0301. As to the kind of experiment: iTopia peptide binding assay.
In test [5] the target is MHC class I allele B*0702. The test is described as follows: iTopia peptide binding assay.
Test [6] has as its target MHC class I allele A*0101. As to the kind of experiment: iTopia peptide binding assay.
Test [7] addresses MHC class I molecule HLA-A*0301 (iTopia plate-bound monomer). As to the kind of experiment: iTopia off-rate assay, 37 C; fit R^2 0.99.
For test [8], the target named is MHC class I molecule B*0702. The test is described as follows: iTopia iScore.
In test [9] the target is MHC class I molecule A*0101. The test is described as follows: iTopia iScore.
Test [10] addresses MHC class I molecule A*0201. The test is described as follows: iTopia iScore.
Test [11] has as its target MHC class I molecule A*0301. The test is described as follows: iTopia iScore.
The target in test [12] is MHC class I molecule HLA-B*0702 (iTopia plate-bound monomer). As to the kind of experiment: iTopia off-rate assay, 37 C; fit R^2 0.09.
For test [13], the target named is MHC class I molecule HLA-A*0201 (iTopia plate-bound monomer). The test is described as follows: iTopia off-rate assay, 37 C; fit R^2 0.35.
Test [14] has as its target MHC class I allele B*0702 monomer (human). The test is described as follows: iTopia, multiparametric iScore.
Test [15] deals with MHC class I allele A*0201 monomer (human). As to the kind of experiment: iTopia, multiparametric iScore.

B1: 5T4 9 mer peptide 9 (…) (peptide)
peptide: RLARLALVL
modifications: here or on the partner: biotin (bound via biotin to streptavidin-coated plates)
For orientation: EC50 means the concentration giving half of the maximal effect. Lower therefore signals greater potency. With B1, the half-maximal effective concentration (EC50) in test [1] came out at 700 nM; in test [2], 3000 nM.

B2: 5T4 9 mer peptide 9 … (peptide)
peptide: RLARLALVL
modifications: here or on the partner: bound via biotin to streptavidin-coated plate
B2: the % of positive control peptide binding in [3] stood at 65%; in [4], 48%; in test [5] it was 84%; in [6], 2%.

B3: 5T4 9-mer peptide 9 … (peptide)
peptide: RLARLALVL
modifications: here or on the partner: biotin (bound to streptavidin-coated plate)
Turning to B3, the t½ half life in test [7] is 0.3 h; in test [12] it was 2 h; in test [13], 15.9 h. Besides, the iScore in test [8] amounted to 0.515; in test [9], 0; in test [10] it was 1.21; in test [11] it was 0.052.

B4: 5T4 9-mer peptide 9 (peptide)
peptide: RLARLALVL
modifications: here or on the partner: biotinylated, bound to streptavidin-coated plate
For B4, the results for the iScore in [14] and in test [15] were 0.515 and 1.21, respectively.
